Data taken from the supplement of paper PMC10065799, “High-throughput profiling of sequence recognition by tyrosine kinases and SH2 domains using bacterial peptide display” (eLife, 2023).

Assays:
AncSZ = test: phosphorylation enrichment, bacterial display (enrichment ratio); higher = better substrate or ligand; peptides without Tyr show the background
EPHB1 = EPHB1 (UniProt P54762); test: as above
EPHB2 = EPHB2 (UniProt P29323); test: as above
FGFR1 = FGFR1 (UniProt P11362); test: as above
FGFR3 = FGFR3 (UniProt P22607); test: as above
Fer (mouse) = test: as above
Fes = Fes (UniProt P07332); test: as above
Fyn = Fyn (UniProt P06241); test: as above
Hck = Hck (UniProt P08631); test: as above
Jak2 = Jak2 (UniProt O60674); test: as above
MERTK = MERTK (UniProt Q12866); test: as above
c-Abl (mouse) = test: as above
c-Src = test: as above
Grb2 SH2 = Grb2 SH2 (UniProt P62993); test: SH2 binding enrichment of the phosphorylated peptide, bacterial display (enrichment ratio); higher = better substrate or ligand; peptides without Tyr show the background
SHP2-C SH2 = test: as above
c-Src SH2 = test: as above
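Wherever SH2 binding enrichment of the phosphorylated peptide, bacterial display is given: peptide library displayed on the E. coli surface as eCPX fusions, selected cells deep-sequenced, score is each peptide's frequency after selection divided by its frequency in the input.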
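Wherever phosphorylation enrichment, bacterial display is given: 11-residue human phosphosite peptides and single-mutation variants displayed on the E. coli surface, counted by deep sequencing, each peptide's frequency after selection divided by its frequency in the unselected input library; frequency after pTyr selection over input frequency; kinase dosed for 20-30% of maximal phosphorylation in three min.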

Chain of FGFR3 (P22607 whole entry, looked up): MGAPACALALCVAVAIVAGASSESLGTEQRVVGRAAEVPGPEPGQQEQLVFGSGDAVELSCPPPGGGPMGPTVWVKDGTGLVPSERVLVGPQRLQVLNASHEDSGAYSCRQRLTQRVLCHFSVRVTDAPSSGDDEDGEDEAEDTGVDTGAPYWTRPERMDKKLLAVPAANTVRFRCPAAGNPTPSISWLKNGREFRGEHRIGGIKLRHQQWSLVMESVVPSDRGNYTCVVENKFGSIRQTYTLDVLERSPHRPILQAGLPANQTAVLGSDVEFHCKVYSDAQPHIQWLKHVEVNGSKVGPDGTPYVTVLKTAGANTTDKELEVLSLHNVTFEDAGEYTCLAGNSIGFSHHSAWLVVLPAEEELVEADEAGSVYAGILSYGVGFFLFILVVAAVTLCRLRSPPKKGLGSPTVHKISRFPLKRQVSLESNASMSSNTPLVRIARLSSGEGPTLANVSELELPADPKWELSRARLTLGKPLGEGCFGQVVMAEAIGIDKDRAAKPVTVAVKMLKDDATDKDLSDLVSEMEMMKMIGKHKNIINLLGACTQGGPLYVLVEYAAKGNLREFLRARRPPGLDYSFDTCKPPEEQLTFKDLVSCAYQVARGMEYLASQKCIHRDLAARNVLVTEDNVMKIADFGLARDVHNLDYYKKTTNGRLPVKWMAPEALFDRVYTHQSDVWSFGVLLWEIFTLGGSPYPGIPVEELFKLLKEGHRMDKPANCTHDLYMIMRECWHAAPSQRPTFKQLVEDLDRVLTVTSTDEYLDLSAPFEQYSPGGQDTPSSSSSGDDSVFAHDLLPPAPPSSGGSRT
Chain of MERTK (Q12866 whole entry, looked up): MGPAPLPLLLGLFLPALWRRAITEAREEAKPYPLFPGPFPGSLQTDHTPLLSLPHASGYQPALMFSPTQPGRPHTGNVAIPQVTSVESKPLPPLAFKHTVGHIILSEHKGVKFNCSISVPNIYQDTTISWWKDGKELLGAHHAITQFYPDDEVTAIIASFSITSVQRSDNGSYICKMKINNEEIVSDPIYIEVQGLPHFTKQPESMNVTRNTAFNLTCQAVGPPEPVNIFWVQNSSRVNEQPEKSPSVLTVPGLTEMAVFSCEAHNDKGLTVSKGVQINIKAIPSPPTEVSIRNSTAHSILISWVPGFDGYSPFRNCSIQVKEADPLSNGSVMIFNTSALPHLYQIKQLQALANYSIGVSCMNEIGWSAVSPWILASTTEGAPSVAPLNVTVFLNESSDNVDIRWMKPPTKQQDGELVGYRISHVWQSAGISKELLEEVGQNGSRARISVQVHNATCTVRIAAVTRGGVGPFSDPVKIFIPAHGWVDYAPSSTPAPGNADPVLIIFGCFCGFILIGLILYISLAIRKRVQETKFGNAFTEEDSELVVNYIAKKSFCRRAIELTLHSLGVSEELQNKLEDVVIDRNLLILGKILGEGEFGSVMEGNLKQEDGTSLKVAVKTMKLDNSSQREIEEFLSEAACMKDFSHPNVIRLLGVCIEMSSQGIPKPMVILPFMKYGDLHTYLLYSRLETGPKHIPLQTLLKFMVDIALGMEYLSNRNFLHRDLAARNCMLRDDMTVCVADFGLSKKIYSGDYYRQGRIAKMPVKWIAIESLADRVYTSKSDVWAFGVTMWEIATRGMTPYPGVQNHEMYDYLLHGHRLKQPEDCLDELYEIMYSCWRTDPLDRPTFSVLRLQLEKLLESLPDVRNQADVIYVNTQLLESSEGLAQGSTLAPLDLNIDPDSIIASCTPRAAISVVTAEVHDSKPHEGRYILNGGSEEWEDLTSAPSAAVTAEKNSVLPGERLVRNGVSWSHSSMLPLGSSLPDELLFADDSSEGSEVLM
Chain of FGFR1 (P11362 whole entry, looked up): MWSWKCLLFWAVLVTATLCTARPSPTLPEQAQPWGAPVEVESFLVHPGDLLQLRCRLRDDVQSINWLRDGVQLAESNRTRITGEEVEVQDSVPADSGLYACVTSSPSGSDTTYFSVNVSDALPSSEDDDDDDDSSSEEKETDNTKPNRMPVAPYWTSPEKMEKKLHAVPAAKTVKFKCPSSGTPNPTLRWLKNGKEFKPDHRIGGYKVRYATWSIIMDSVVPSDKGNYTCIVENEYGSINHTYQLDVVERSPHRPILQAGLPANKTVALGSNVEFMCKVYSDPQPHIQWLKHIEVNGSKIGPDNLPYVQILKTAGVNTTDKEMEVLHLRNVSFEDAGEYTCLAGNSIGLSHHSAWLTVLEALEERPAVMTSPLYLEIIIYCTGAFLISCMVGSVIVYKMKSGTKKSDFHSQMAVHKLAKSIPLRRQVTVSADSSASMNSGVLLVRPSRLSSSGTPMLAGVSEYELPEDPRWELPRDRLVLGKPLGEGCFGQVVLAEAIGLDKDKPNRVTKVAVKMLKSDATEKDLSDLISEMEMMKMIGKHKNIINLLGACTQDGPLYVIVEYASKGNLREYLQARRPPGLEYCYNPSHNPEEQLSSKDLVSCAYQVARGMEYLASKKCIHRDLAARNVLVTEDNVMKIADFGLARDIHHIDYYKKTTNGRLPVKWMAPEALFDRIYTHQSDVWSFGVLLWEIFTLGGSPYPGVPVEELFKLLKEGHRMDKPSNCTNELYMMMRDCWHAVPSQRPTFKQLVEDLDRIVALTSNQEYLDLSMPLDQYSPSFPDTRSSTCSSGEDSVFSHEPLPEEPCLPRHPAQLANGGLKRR
Chain of Grb2 SH2 (P62993 whole entry, looked up): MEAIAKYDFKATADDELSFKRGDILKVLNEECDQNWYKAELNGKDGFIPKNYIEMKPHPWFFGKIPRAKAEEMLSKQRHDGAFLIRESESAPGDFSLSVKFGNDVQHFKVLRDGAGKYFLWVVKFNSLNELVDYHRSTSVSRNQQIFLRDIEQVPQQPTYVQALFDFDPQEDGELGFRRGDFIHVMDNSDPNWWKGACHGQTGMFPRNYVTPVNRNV
Chain of Jak2 (O60674 whole entry, looked up): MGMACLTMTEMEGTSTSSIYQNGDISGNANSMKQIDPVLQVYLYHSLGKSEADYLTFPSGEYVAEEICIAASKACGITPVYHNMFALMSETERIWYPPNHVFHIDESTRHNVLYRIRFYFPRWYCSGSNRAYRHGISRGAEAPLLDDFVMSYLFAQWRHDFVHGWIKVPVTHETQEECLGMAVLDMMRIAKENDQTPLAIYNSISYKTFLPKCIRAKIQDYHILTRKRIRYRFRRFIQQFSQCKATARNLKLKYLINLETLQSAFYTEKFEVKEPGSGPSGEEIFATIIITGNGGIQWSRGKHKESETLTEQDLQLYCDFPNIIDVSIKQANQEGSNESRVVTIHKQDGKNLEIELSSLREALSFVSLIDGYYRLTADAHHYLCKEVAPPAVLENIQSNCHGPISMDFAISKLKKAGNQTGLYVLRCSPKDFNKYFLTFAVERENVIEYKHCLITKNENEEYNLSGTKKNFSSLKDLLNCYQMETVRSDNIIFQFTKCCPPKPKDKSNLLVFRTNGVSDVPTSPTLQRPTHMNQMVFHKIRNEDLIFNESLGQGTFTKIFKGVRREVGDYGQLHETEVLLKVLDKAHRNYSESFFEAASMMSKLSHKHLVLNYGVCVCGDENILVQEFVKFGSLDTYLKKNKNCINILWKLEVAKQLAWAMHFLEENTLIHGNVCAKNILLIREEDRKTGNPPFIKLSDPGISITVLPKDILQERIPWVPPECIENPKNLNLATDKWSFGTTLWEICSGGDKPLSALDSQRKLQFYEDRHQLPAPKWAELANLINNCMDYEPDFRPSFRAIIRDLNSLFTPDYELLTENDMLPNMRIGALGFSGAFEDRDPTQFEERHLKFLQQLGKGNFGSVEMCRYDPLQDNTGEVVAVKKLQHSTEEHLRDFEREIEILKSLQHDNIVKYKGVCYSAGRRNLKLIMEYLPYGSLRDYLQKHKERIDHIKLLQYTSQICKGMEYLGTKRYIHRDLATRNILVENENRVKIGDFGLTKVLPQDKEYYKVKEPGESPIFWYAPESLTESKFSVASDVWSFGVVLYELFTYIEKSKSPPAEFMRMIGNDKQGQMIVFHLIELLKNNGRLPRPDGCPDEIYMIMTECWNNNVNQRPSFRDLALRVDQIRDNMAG
Chain of Fes (P07332 whole entry, looked up): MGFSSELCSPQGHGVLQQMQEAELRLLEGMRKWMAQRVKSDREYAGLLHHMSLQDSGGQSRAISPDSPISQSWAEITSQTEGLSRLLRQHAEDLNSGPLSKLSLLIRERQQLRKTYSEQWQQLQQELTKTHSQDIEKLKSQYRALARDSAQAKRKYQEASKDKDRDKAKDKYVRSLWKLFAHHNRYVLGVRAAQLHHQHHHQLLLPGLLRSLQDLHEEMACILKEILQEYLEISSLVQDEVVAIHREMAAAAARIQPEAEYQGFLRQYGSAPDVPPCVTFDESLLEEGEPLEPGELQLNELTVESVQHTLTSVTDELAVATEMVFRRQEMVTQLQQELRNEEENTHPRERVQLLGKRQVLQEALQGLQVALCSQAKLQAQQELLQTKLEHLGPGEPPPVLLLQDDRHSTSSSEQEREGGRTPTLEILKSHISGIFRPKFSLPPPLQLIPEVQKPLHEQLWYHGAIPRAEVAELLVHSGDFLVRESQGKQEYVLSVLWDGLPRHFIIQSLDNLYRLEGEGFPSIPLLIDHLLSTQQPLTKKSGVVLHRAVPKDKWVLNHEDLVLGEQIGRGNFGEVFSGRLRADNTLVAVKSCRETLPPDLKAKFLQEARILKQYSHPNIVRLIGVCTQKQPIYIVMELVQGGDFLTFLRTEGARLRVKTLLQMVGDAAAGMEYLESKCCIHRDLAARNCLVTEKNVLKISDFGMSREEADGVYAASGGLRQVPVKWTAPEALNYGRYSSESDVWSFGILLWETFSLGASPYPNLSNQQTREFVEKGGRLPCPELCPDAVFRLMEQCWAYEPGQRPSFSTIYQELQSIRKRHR

With GSLEDYVRETN [GIMAP6_Y176] the phosphorylation enrichment (AncSZ) was 1, the phosphorylation enrichment (EPHB1) was 0.438 and the phosphorylation enrichment (EPHB2) was 0.573. It also gave a phosphorylation enrichment (FGFR1) of 0.501, a phosphorylation enrichment (FGFR3) of 0.661 and a phosphorylation enrichment (Fer (mouse)) of 0.398. For the same sequence, the phosphorylation enrichment (Fes) was 0.869, the phosphorylation enrichment (Fyn) was 0.468 and the phosphorylation enrichment (Hck) was 0.54. The phosphorylation enrichment (Jak2) was 0.724, the phosphorylation enrichment (MERTK) was 0.442 and the phosphorylation enrichment (c-Abl (mouse)) was 0.619. The phosphorylation enrichment (c-Src) was 0.424, the SH2 binding enrichment (Grb2 SH2) was 0.785 and the SH2 binding enrichment (SHP2-C SH2) was 0.656. It also gave an SH2 binding enrichment (c-Src SH2) of 0.541.
GSQERYFELVE [TSC2_Y407] was tested, and the phosphorylation enrichment (AncSZ) was 1.13, the phosphorylation enrichment (EPHB1) was 0.577 and the phosphorylation enrichment (EPHB2) was 0.571. The phosphorylation enrichment (FGFR1) was 0.947, the phosphorylation enrichment (FGFR3) was 0.826 and the phosphorylation enrichment (Fer (mouse)) was 0.541. It also gave a phosphorylation enrichment (Fes) of 1.27, a phosphorylation enrichment (Fyn) of 0.462 and a phosphorylation enrichment (Hck) of 0.466. The phosphorylation enrichment (Jak2) was 1.17, the phosphorylation enrichment (MERTK) was 0.489 and the phosphorylation enrichment (c-Abl (mouse)) was 0.813. The phosphorylation enrichment (c-Src) was 0.509, the SH2 binding enrichment (Grb2 SH2) was 0.689 and the SH2 binding enrichment (SHP2-C SH2) was 0.499. It also gave an SH2 binding enrichment (c-Src SH2) of 2.07.
For GSRGKYSSGFH [ATM_Y332_R337H], the phosphorylation enrichment (AncSZ) was 0.464, the phosphorylation enrichment (EPHB1) was 0.417 and the phosphorylation enrichment (EPHB2) was 0.3. For the same sequence, the phosphorylation enrichment (FGFR1) was 0.452, the phosphorylation enrichment (FGFR3) was 0.605 and the phosphorylation enrichment (Fer (mouse)) was 0.409. The phosphorylation enrichment (Fes) was 0.535, the phosphorylation enrichment (Fyn) was 0.421 and the phosphorylation enrichment (Hck) was 0.391. The phosphorylation enrichment (Jak2) was 0.439, the phosphorylation enrichment (MERTK) was 0.452 and the phosphorylation enrichment (c-Abl (mouse)) was 0.579. The phosphorylation enrichment (c-Src) was 0.45, the SH2 binding enrichment (Grb2 SH2) was 1.04 and the SH2 binding enrichment (SHP2-C SH2) was 0.649. The SH2 binding enrichment (c-Src SH2) was 0.905.
Work on GSTLSYFGLAT [P2RX7_Y343_A348T] yielded a phosphorylation enrichment (AncSZ) of 1.09, a phosphorylation enrichment (EPHB1) of 0.635 and a phosphorylation enrichment (EPHB2) of 0.5. For the same sequence, the phosphorylation enrichment (FGFR1) was 1.36, the phosphorylation enrichment (FGFR3) was 1.36 and the phosphorylation enrichment (Fer (mouse)) was 0.545. The phosphorylation enrichment (Fes) was 0.912, the phosphorylation enrichment (Fyn) was 0.639 and the phosphorylation enrichment (Hck) was 0.687. It also gave a phosphorylation enrichment (Jak2) of 5.4, a phosphorylation enrichment (MERTK) of 0.637 and a phosphorylation enrichment (c-Abl (mouse)) of 0.998. For the same sequence, the phosphorylation enrichment (c-Src) was 0.595, the SH2 binding enrichment (Grb2 SH2) was 0.893 and the SH2 binding enrichment (SHP2-C SH2) was 0.751. The SH2 binding enrichment (c-Src SH2) was 0.595.
Work on GTQGSYLLSRK [UGT3A1_Y123_C121G] yielded a phosphorylation enrichment (AncSZ) of 0.523, a phosphorylation enrichment (EPHB1) of 0.48 and a phosphorylation enrichment (EPHB2) of 0.411. The phosphorylation enrichment (FGFR1) was 0.366, the phosphorylation enrichment (FGFR3) was 0.355 and the phosphorylation enrichment (Fer (mouse)) was 0.392. For the same sequence, the phosphorylation enrichment (Fes) was 0.56, the phosphorylation enrichment (Fyn) was 0.4 and the phosphorylation enrichment (Hck) was 0.49. For the same sequence, the phosphorylation enrichment (Jak2) was 0.615, the phosphorylation enrichment (MERTK) was 0.433 and the phosphorylation enrichment (c-Abl (mouse)) was 0.606. The phosphorylation enrichment (c-Src) was 0.555, the SH2 binding enrichment (Grb2 SH2) was 0.584 and the SH2 binding enrichment (SHP2-C SH2) was 0.821. It also gave an SH2 binding enrichment (c-Src SH2) of 0.392.
In the case of GTTIHYNYMCN [TP53_Y234_C229G], the phosphorylation enrichment (AncSZ) is reported as 1.12, the phosphorylation enrichment (EPHB1) is reported as 0.834 and the phosphorylation enrichment (EPHB2) is reported as 0.704. It also gave a phosphorylation enrichment (FGFR1) of 0.619, a phosphorylation enrichment (FGFR3) of 0.973 and a phosphorylation enrichment (Fer (mouse)) of 0.656. The phosphorylation enrichment (Fes) was 1.37, the phosphorylation enrichment (Fyn) was 0.614 and the phosphorylation enrichment (Hck) was 0.673. For the same sequence, the phosphorylation enrichment (Jak2) was 1.22, the phosphorylation enrichment (MERTK) was 0.585 and the phosphorylation enrichment (c-Abl (mouse)) was 0.814. It also gave a phosphorylation enrichment (c-Src) of 0.529, an SH2 binding enrichment (Grb2 SH2) of 0.716 and an SH2 binding enrichment (SHP2-C SH2) of 0.73. For the same sequence, the SH2 binding enrichment (c-Src SH2) was 1.56.
With GTVRDYPDFNP [ANXA3_Y15_S19N] the phosphorylation enrichment (AncSZ) was 0.785, the phosphorylation enrichment (EPHB1) was 0.519 and the phosphorylation enrichment (EPHB2) was 0.431. For the same sequence, the phosphorylation enrichment (FGFR1) was 0.403, the phosphorylation enrichment (FGFR3) was 0.526 and the phosphorylation enrichment (Fer (mouse)) was 0.407. The phosphorylation enrichment (Fes) was 0.796, the phosphorylation enrichment (Fyn) was 0.404 and the phosphorylation enrichment (Hck) was 0.418. For the same sequence, the phosphorylation enrichment (Jak2) was 0.9, the phosphorylation enrichment (MERTK) was 0.304 and the phosphorylation enrichment (c-Abl (mouse)) was 0.663. The phosphorylation enrichment (c-Src) was 0.357, the SH2 binding enrichment (Grb2 SH2) was 0.874 and the SH2 binding enrichment (SHP2-C SH2) was 0.609. The SH2 binding enrichment (c-Src SH2) was 0.536.
GVIRHYVVCST [BTK_Y334] gave a phosphorylation enrichment (AncSZ) of 1.13, a phosphorylation enrichment (EPHB1) of 0.68 and a phosphorylation enrichment (EPHB2) of 0.712. It also gave a phosphorylation enrichment (FGFR1) of 0.555, a phosphorylation enrichment (FGFR3) of 0.813 and a phosphorylation enrichment (Fer (mouse)) of 0.566. The phosphorylation enrichment (Fes) was 1.25, the phosphorylation enrichment (Fyn) was 0.535 and the phosphorylation enrichment (Hck) was 0.536. It also gave a phosphorylation enrichment (Jak2) of 1.12, a phosphorylation enrichment (MERTK) of 0.447 and a phosphorylation enrichment (c-Abl (mouse)) of 0.87. For the same sequence, the phosphorylation enrichment (c-Src) was 0.444, the SH2 binding enrichment (Grb2 SH2) was 0.819 and the SH2 binding enrichment (SHP2-C SH2) was 0.529. For the same sequence, the SH2 binding enrichment (c-Src SH2) was 0.495.
